From patent US20240239878A1 (SHANGHAI QILU PHARMACEUTICAL RESEARCH AND DEVELOPMENT CENTRE, published 2024) come the findings set out here.

Experiment [1] has as its target T1, human DLL3 antigen protein (Kactus Biosystems, Cat. No. DLL-HM103) (human, UniProt Q9NYJ7 27-492).
T1 sequence: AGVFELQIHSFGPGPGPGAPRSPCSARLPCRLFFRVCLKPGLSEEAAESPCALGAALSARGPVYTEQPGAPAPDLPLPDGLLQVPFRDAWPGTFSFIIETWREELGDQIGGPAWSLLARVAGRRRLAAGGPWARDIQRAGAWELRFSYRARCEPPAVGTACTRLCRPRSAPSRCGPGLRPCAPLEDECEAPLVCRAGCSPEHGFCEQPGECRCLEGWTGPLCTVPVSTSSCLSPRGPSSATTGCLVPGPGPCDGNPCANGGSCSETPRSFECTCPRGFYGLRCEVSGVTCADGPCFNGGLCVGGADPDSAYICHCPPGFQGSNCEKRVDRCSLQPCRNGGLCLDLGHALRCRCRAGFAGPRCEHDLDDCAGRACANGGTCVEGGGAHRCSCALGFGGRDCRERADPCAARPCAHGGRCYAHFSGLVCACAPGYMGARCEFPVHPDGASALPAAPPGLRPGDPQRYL
Briefly: SPR (Biacore 8K), antibody captured on anti-human Fc, DLL3 in solution. On the procedure: The affinity and kinetic properties of the humanized anti-DLL3 antibody to human DLL3 were analyzed using a Biacore 8K instrument. CM5 chips were activated with EDC and NHS, followed by immobilization of anti-human Fc murine mAb and blocked with ethanolamine.
Human DLL3 was diluted two-fold serially to serial concentrations (100 nM-0.39 nM) and associated for 90 s and dissociated for 600 s at a flow rate of 50 μL/min.
After completion of each cycle of the experiment, the captured antibody was removed together with the antigen by washing with a 3M MgCl₂ solution at a flow rate of 30 μL/min for 30 s to complete the regeneration of the chip. The raw data were analyzed using Biacore Insight Evaluation Software (3.0.12.15655) software and fitted with a (1:1) Langmuir model.
A general note: In SPR one partner is held on a chip, and binding of the other changes the refractive index at the surface.

The target of experiment [2] is T2, Cynomolgus monkey DLL3 on HEK293 cells (HEK293-cyno DLL3) (Cynomolgus monkey, UniProt Q9NYJ7 27-618 (human entry)).
T2 chain: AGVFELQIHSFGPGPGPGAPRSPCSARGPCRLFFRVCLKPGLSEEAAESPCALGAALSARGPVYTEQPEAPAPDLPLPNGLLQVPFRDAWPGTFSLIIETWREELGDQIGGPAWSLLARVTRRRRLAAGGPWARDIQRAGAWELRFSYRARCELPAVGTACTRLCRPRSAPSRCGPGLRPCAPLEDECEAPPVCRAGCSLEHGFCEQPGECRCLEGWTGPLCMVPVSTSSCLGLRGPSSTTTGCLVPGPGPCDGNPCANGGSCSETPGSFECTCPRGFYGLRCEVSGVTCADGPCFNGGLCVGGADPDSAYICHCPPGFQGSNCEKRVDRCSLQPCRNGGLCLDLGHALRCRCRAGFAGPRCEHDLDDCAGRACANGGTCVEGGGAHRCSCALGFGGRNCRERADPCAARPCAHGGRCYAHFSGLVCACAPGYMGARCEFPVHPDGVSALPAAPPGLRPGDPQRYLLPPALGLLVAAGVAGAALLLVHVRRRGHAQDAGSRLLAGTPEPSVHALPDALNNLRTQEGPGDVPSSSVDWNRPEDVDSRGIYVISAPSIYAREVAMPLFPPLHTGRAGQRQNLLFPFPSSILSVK
Description: flow cytometry, HEK293-cyno DLL3 cells. On the procedure: Monoclonal selection was performed, and the expression level of DLL3 protein in the monoclonal cells were identified by flow cytometry. The culture was expanded and stored in storage for later use. SHP-77 and HEK293-cyno DLL3 cells were cultured. The culture medium for SHP-77 cells were RPMI1640+10% FBS, and the culture medium for HEK293 cyno DLL3 cells were DMEM+10% FBS+200 μg/ml Hygromycin. The cells were cultured in a T75 cell culture flask at a 37° ° C. in a 5% CO₂ incubator. When using cells, they are washed with sterile DPBS, digested with 0.25% trypsin EDTA for about 5 minutes, and then stopped with a complete medium.
The digested cells were centrifuged at 1000 rpm for 5 min at room temperature. The supernatant was discarded and the cells were resuspended in 100 μL of 1% BSA (in PBS). The cells were counted and adjusted to a cell density of 1E6/m. The dilute cells were seeded in a 96-well round-bottom culture plate (corning 3799), and centrifuged at 1500 rpm for 5 min at 4° C. The supernatant was discarded and the cells were stored at 4° C. until use. Antibody samples to be tested were diluted with 1% BSA (in PBS) at a starting concentration of 100 nM, downwards by a 10-fold gradient for 7 concentrations. The cells were resuspended with the diluted antibody at 100 μL/well and incubated for 1 hour at 4° C. The cells were centrifuged at 1500 rpm for 5 minutes at 4° C. and the supernatant was discarded. The cells were resuspended and washed with 160 μL of 1% BSA (in PBS), centrifuged at 1500 rpm for 5 minutes at 4° C. The supernatant was discarded. The secondary antibody (goat anti human IgG Fc PE) was diluted 1:200 with 1% BSA (in PBS) according to the manufacturer's instructions and the cells were resuspended with the diluted secondary antibody. 100 μL/well, and incubated for 0.5 h at 4° C. The cells were centrifuged at 1500 rpm for 5 minutes at 4° C. and the supernatant was discarded. The cells were resuspended and washed with 160 μL of 1% BSA (in PBS), centrifuged at 1500 rpm for 5 minutes at 4° C. The supernatant was discarded. The cells were resuspended in 100 μL of 1% BSA (in PBS), and filtered across a 300 mesh gauze. The mean fluorescence intensity of the PE channels was measured by flow cytometry.
Background: A flow cytometer gives signals particle by particle.

B1: DLL3-122 camelid-derived anti-DLL3 chimeric antibody (antibody, human IgG1, V domains shown)
VH: QVQLVESGGGSVQAGGSLRLSCTASGDTYRSYCMGWFRKAPGKEREGVADIVSDGSTSYADSVKGRFTISKDNAKNTLYLQMNSLKPEDTAMYYCAVDRGGSGGYCYTGRYDYWGQGTQVTVSS
Consider B1, for which, in experiment [1], the affinity, expressed as Kd, was 4210 pM; the koff came to 0.000392 s⁻¹; the kon stood at 93200 M⁻¹ s⁻¹. In experiment [2], the response was half-maximal at 415 pM (EC50) and the “Top MFI” value was determined as 460 MFI.

B2: hDLL3-122 camelid-derived humanized anti-DLL3 antibody (antibody, V domains shown)
VH: EVQLVESGGGLVQPGGSLRLSCAASGDTYRSYCMGWFRQAPGKEREGVADIVSDGSTSYADSVKGRFTISRDNSKNTLYLQMNSLRAEDTAVYYCAVDRGGSGGYCYTGRYDYWGQGTLVTVSS
B2: in experiment [1], the Kd amounted to 4730 pM, the koff came out at 0.000466 s⁻¹ and the kon is 98500 M⁻¹ s⁻¹.

B3: DLL3-26 camelid-derived anti-DLL3 chimeric antibody (antibody, human IgG1, V domains shown)
VH: QVQLVESGGGSVQAGGSLRLSCAASGDIYSSSYVGWFRQAPGKEREGVAIIYTSGDSTYYANSVKGRFTISQDKAKKTLYLQMNSLKPEDTAMYYCAARFAIDNSNYWGQGTQVTVSS
For the molecule B3, in experiment [1], the Kd was found to be 32.2 pM, the koff is 1.23e-05 s⁻¹ and the kon came to 382000 M⁻¹ s⁻¹. In experiment [2], the EC50 amounted to 439 pM and the “Top MFI” value worked out at 450 MFI.

B4: hDLL3-26 camelid-derived humanized anti-DLL3 antibody (antibody, V domains shown)
VH: EVQLVESGGGLVQPGGSLRLSCAASGDIYSSSYVGWFRQAPGKEREGVAIIYTSGDSTYYADSVKGRFTISRDNSKNTLYLQMNSLRAEDTAVYYCAARFAIDNSNYWGQGTLVTVSS
In experiment [1], B4 showed a Kd of 1690 pM, a koff of 0.000355 s⁻¹ and a kon of 210000 M⁻¹ s⁻¹.

B5: hDLL3-3-1 camelid-derived humanized anti-DLL3 antibody (antibody, human IgG1, V domains shown)
VH: EVQLVESGGGLVQPGGSLRLSCAASTYTISSGYMGWFRQAPGKEREGVAAIYIGGSTTLYADSVKGRFTISRDNSKNTLYLQMNSLRAEDTAVYYCAAQLRPNSAYHPLDGRKYNYWGQGTLVTVSS
In the case of B5, in experiment [1], the affinity, expressed as Kd, was 304 pM; the koff amounted to 0.00058 s⁻¹; the kon came out at 1.91e+06 M⁻¹ s⁻¹.

B6: hDLL3-3-2 camelid-derived humanized anti-DLL3 antibody (antibody, V domains shown)
VH: EVQLVESGGGLVQPGGSLRLSCKSPTYTISSGYMGWFRQAPGKEREGVAAIYIGGSTTLYADSVKGRFTISRDNSKNTLYLQMNSLRAEDTAVYYCAAQLRPNSAYHPLDGRKYNYWGQGTLVTVSS
In experiment [1], B6 yielded a Kd of 399 pM, a koff of 0.000776 s⁻¹ and a kon of 1.95e+06 M⁻¹ s⁻¹.

B7: DLL3-3 camelid-derived anti-DLL3 chimeric antibody (antibody, human IgG1, V domains shown)
VH: DVQLVESGGGSVQAGGSLKLSCKSPTYTISSGYMGWFRQAPGKEREGVAAIYIGGSTTLYADSVKGRFTISADNAEKTVYLQMNTLKPEDSAMYYCAAQLRPNSAYHPLDGRKYNYWGQGTQVTVSS
In experiment [1], B7 displayed a Kd of 127 pM, a koff of 0.000274 s⁻¹ and a kon of 2.15e+06 M⁻¹ s⁻¹. In addition, in experiment [2], a half-maximal response (EC50) required 25 pM and the “Top MFI” value came to 438 MFI.

For orientation: Kd means the equilibrium constant for the complex coming apart. In general, koff refers to the first-order rate constant of dissociation. Broadly, the kon is a measure of how fast the partners come together. Broadly, the EC50 is the concentration giving half of the maximal effect.
